Experimental data taken from article PMC5430821.

Biological target: rat synaptotagmin 2 fused to the DCTM exosome-sorting peptide, displayed on exosomes (rat) (UniProt P29101)
Assay: SPR; […] (1 µM); […], single-cycle kinetics, 1:1 model, […]; 25 °C, HBS pH 7.4, 150 mM NaCl

Chain of UniProt P29101 (P29101 whole entry, the tested form may be a part): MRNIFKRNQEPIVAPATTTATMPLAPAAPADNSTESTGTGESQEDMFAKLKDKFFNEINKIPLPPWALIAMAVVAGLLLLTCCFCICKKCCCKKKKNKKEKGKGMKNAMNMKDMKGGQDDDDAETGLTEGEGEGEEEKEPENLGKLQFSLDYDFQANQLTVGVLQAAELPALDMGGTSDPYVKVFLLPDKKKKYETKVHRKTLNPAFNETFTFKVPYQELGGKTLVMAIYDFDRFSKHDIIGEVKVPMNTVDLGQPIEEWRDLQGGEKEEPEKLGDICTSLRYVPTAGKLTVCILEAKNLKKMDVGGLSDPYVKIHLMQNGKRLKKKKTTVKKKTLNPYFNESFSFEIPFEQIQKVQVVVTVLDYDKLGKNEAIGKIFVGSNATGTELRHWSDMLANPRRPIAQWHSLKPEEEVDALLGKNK

## BoNT/B (B1 Okra strain) neurotoxin with non-toxic accessory proteins (complex)
  Kd: 1.4 nM
  koff: 0.00041 s⁻¹
  kon: 310000 M⁻¹ s⁻¹

## BoNT/B holotoxin (B1), pure botulinum neurotoxin type B (natural protein)
  Kd: 0.6 nM
  koff: 0.00013 s⁻¹
  kon: 230000 M⁻¹ s⁻¹
